Experimental data published in US20220112236A1.

Assays:
[1] = target: Polyclonal human IgG Gammanorm (human); assay: affinity chromatography column, IgG binding capacity after 24 h in 0.5 M NaOH at room temperature relative to before incubation
[2] = target: Polyclonal human IgG Gammanorm (human); assay: affinity chromatography, commercial resin packed in column, polyclonal human IgG (Gammanorm) applied, DBC at 6 min residence time

Remaining binding capacity after 24h 0.5M NaOH incubation [1]: 75.2% | Dynamic binding capacity at 6 min residence time [2]: 41.8 mg/mL
Substance: MabSelect SuRe
